# Measured values: the domain aggregation screens of Martell et al. (2025)
# Assay: soluble fraction after stress (log2 fold change); higher = more stays soluble; pooled small domains, quantitative proteomics
# Conditions: stress: 50 degC
# In short: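 Pooled custom libraries of small protein domains were measured in a high-throughput format, with quantitative proteomics as the read-out. Each library was stressed at 50°C. Aggregation propensity is given as the base-two logarithm of the fold change in how much of each protein stays soluble after the stress. Higher values mean a larger share of the protein remains in solution.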
row,Sequence,soluble fraction (log2)
1,HMVDYYEILGVSPDASRKDIENAWRKKMREAHPDMGGSEDKAQLLNEAHKVLSDESARAEYDASR,0.103
2,HMTRQKEAILALLTDSRGEALSASELLARLTRSGSSIGRTTVYRLLSQLVDDGVVRAWRDASRGITLYELS,-0.113
3,HMTETIPVSERLFRYLFEEKGKRVQKIQQTSHARVRMERSPYSVVVSGTKDAVEAAMESLKATEKELLEA,0.15
4,HMNNIIEQIKADIKKLEEKLDKSSENALNKLEKDYSSLSTESKKKLDDAGYGARIKALRVKFAALSTQ,0.0666
5,HMGRLNMRRIRDVLRLKFGQGLSERQVAASLGLSKTSVGTYLHRARQAGLTWPLPQGLDDDGLELLLFP,-1.29
6,HMFSQDQIFLRSGEKIDARVIEVTPEFIKYKSKANPEGPLYSKKITDVLLITYANGTTEVYE,-0.00684
7,HMKIHNSIREITDFDRKQNSNIPSDAKYRIVFYTPQGNKTIIPEELQGLQYYRSKELAEIALNKKLNSN,-0.132
8,HMEKELVSDFASRISTARSSKGWNHAELGKRMAETVNVIKSAESGKPPTDSVVKKLERVLGITLMEV,-0.17
9,HMVAGHLQTKKGYYYIVLNMRTDTGARKTKWIATGIPEGGKKNLKQAEELLAKTRYTYEDMVI,-0.792
10,HMEDVRSLTGPEKAAIILLSLGEEHGQGVWRMFDDEEVKEVSQIMANLGTISASVVEKLLVEFVSQMST,-0.873
11,HMSPDTREAILAAARTAFARDGYQTSLRGIARDAGVDPALVHHYFPDRATLFAKAVIESTAG,-0.00189
12,HMTRRVIRAPAAGIMRSNVKLGDLVKEGDVIAWIGEHEIKAPLTGMVRGLLNDGLAVVGGFKIGDI,-0.175
13,HMKNNLKGSPIIIAGGYGVGSKENFNLLFDLAKVLNAEVGASRAAVDAGFVEHDRQIGQTGVTVRP,0.0735
14,HMGSLVVVPNLVGQNYDEVKLSTKYSDFEIVQKNTEYSEAPAGQIIKQDPEAGTKVKKHSTINVTVSK,-0.354
15,HMTELIEDYVELIGDLIRHRGEARAADIANRMAVSQATVSKMIRRLNELGLVTSKPYRSLFLTDEGQKMAE,-0.474
16,HMKKVRIPDDPEEAYRKALKTAMNIVGYKDNTEFTLREKLSERGYSGETVDAVAEFMKSKGYV,0.245
17,HMVGKGASIILDRVNLPQYLEKFNEDGFDTIESLKNLNEIDLKEMGVKKGHIRVILNYLHEEY,-0.501
18,HMSTEPLALVGKTGIAATVLRPSGRIEVDDKYYDAVSLGAFIEKGEMVNIVKYENLQLYVAKL,-0.0644
19,HMKSTPMYATAIVNIRSKAGTDSEILGKLNPSEEISVISSENGWSKVSYNGKEAYISSNYLSNAKP,-0.175

row,Sequence,soluble fraction (log2)
1,HMSPGAKIEVTGNTVNLRAGPGTNYDTRGQVKKGEQLPLLGEQGGWYRVQTSRGVAYLAGWLARVLT,0.0409
2,HMNVEQQNQARENIKRLMEEQGLSQPKLSEKAGIAFGTLSRILRGKQDLTIQTAEKIADALGLSVYDLAE,0.281
3,HMSTEAVVMSSSVSVKSSPDKASTDLFVLHEGTKVRTVSELGDWREIVIADGKKGWVEARTIET,≥ 0.62
4,HMELEENTERVLNILIENDIISENDIAEKLEVKINGARKALYKLKEVGFVEYTKERDEEKKWWYIYFWKLN,-0.0109
5,HMDKSHYEELGVSRTATHAEIRRAYRHLMRTLHPDSNDGRVDAVRITKVNEAWNVLSQSSSRNAYDKSQV,-0.38
6,HMKITFNPVSSGRLDIILAEKTGYTRSYVKQLVEKQAVTINGEAAKKSGQNVKAGDEIALDEP,0.0957
7,HMLNIVTIFEEQFGRPLSPIELNIIKDWKESDYSDEMIVKALKEAVKSQVLNFRYVEGILNNWAKNG,-0.568
8,HMKGLDAAVVDLFKSKGASIVFAGNRLSLSGEVADQATKDELLAKAKAILASLGASVSLDDKLMVKGAKAS,0.0298
9,HMSVPSVAAVREQTGLSQVKFASLLGVSVRTLQEWEQGRRAPSGAARTLLMVAAKNPQALLEV,-0.584
10,HMVFTEEEMLEKIKEYLSTNSYINRRAMETLFNLRQSTALKWLGHFTEIGVLRKEGERNYPVYFLNN,-0.296
11,HMEVVRVEPGATVRDLGEALGVPPTRIIQILMGLGEMKTVTQTLSTEEIELVAEELGRRVEV,0.135
12,HMSMNGNMIHATVIWKGRYFLVKMFFPQLTKPKRAEVQAQIEKAYPGSRVASYHITDYKPGEQFLHV,-1.51
13,HMRSDHVFTSHLARRDKYISELESLSDSARDDHIQTIKEEDEYLLKYRRTRNLFGIPLNDEMKQFEPFNY,-0.131
14,HMDTMINLIGLNLKKAKKELSNLGVNVKKVRYKKSSVYDEGVVIDQSIEAGRNIKNGDFITITVSSGKA,0.428
15,HMGDLTVPDLSGLTVDQAKQRLKDMGLVLGKITTQEDSSKPDGVIISQSPSADGKINKGQLVDVVVNKLS,0.0463
16,HMNADLDIQNVNGNTPLWEAVMRYRGDGFFIEQLLKNGANPDIKNNYGVSPKSLARTIANYDVRRFFN,-0.137
17,HMTLGENLQNLRKEAGLSQEQVAQQLFVSRQTVSKWENNLAEPGVENLKALARLYGVTLDRLVGM,-0.0572
18,HMGRWQPSTSAKQHGESALLLERLLHLERLTVSEAFHVLTINHRLNLSLPEYRSLLAVVQLPK,-1.57
